This is an account of results in US7709240B2, “AMP deaminase originating streptomyces and utilization thereof” (Amano Enzyme Inc., priority 2004, dated 2010).

Entries after “also recorded” stand apart in the source; their conditions may differ.

A short description of one data set: Substrate specificity. The data set is classed as biochemical.
A short description of data set [1]: Contaminated phosphatase activity. As to conditions: 37° C., pH 5.6. The data set is classed as biochemical. As to the method:
To 1.5 ml of solution obtained by mixing 0.025M 5′IMP-2Na and 0.036M barbital sodium-hydrochloric acid buffer solution (pH 5.6) at the ratio of 1:2, 0.5 ml of sample solution was added so as to obtain a reaction solution, which was reacted at 37° C. for 30 minutes. After the reaction was completed, 200 μl of the solution was taken out, and 5 ml of 6% perchloric acid solution was added so as to stop the reaction. Amidol solution (0.05M, 0.25 ml) was added and mixed, followed by adding and mixing 0.25 ml of 0.067 M ammonium molybdate solution, and further adding and mixing 0.25 ml of water, which was allowed to stand in flowing water for 15 minutes. Then, OD265 was measured. A value similarly measured at the reaction time of 0 minute was defined as a blank. Under the above-mentioned conditions, a case where an absorbance difference is reduced by 0.001 during 30 minutes was defined as one unit.
The contaminated phosphatase activities concerning Aspergillus melleus and Streptomyces murinus were measured. In Aspergillus melleus, the contamination activity was observed. On the other hand, in Streptomyces murinus, the phosphatase activity was not observed.

B1: AMP deaminase derived from Streptomyces murinus: thermostable AMP deaminase enzyme produced by Streptomyces murinus IFO14802; amino acid sequence SEQ ID NO: 1 (protein, listed as Streptomyces murinus)
chain: APPPRQATAAEARTDAYLRSVKDRPAALRAFFRQLPKGGDLHNHLSGAVNTDYLIELAAEDGLCIDATMTAVPSPCGPGTRPAADARTDRAFHDAIVRAWSMQDFPPDENGHDHFFDTFGKFGEVTWRHRGKLLAQVADTVVANNQSYLETMVTPASDGAKQLADQVGWDADLTALHRKLAAGGKLDKLVADARKEADDGDAEFRATEHCGTAKARPACGLTVRWISQASRGSSPVRVFTQLDLGMRLAEADSRFVAVNLVQPEDWDSSLENYSLQMRMVGYLRTVYPKAHVTLHAGELWPGLVKPEALKFHIAEAVDIAHTQRVGHGVDLVHEDNWQRTARTMAARQIAVEVPFSSNAQILGVKGAEHPFTTYRRYGVPVVLATDDPGVSRIDISHEYQYAAATYGLGYPELKDLARASLQYAFLPGASLWQGNPTAQGYHPVAACRAERPGQPVHSAACRRLLDGSARARLEWRQEAAFAAFERAHARG
For B1, the “action on substrate 5′-GMP” value in “Substrate specificity” was “did not act on”. For the same molecule, the contaminated phosphatase activity entry in data set [1] is given as “not observed; also recorded: not detected”.
